Common to all, as to format: biochemical
The nature of assay [1]: Small-scale anaerobic C—H amination with purified enzymes, azide 1. As to conditions: catalyst loading 0.5 mol %; NADPH; anaerobic. On the procedure:
Activities are presented in TTN. […] Yields and enantioselectivies determined by HPLC analysis. * (S−R)/(S+R). nd=not determined.
Enzymes used as purified catalysts were expressed as previously described (Lewis, J. C. et al., Proc. Natl. Acad. Sci. U.S.A. 106, 16550-16555 (2009)), and were purified by anion-exchange chromatography (for holoenzymes) or Ni-NTA chromatography (for isolated heme domains). Concentrations of P450 or P411 enzymes were determined as previously reported (Omura, T. & Sato, R., J. Biol. Chem. 239, 2370-2378 (1964); Vatsis, K. P. et al., J. Inorg. Biochem. 91, 542-553 (2002)). Small-scale reactions (400 μL) were conducted in 2 mL crimp vials containing degassed buffer (0.1 M potassium phosphate pH 8.0), enzyme (0.1-0.5% catalyst loading) and oxygen depletion system (10× stock solution containing 14,000 U/mL catalase, 1,000 U/mL glucose oxidase dissolved in 0.1 M KPi pH 8.0). Enzyme (P450 or P411) solution and oxygen depletion mixture were added to the vial with a small stir bar before crimp-sealing. […] Reactions were stirred at room temperature for 24 h under positive argon pressure.
Small-scale reactions (400 μL) were conducted in 2 mL crimp vials (Agilent Technologies, San Diego, Calif.) containing buffer (0.1 M potassium phosphate pH 8.0), enzyme (0.1-0.5% catalyst loading) and oxygen depletion system (10× stock solution containing 14,000 U/mL catalase, 1,000 U/mL glucose oxidase dissolved in 0.1 M KPi pH 8.0). Enzyme (P450 or P411) solution and oxygen depletion mixture were added to the vial with a small stir bar before crimp-sealing. […] In the meantime, the headspace of the sealed 2 mL reaction vial with the P450 solution was made anaerobic by flushing argon over the protein solution (with no bubbling). The buffer/reductant/glucose solution (270 μL) was syringed into the reaction vial with continuous argon purge of the vial headspace. An arylsulfonyl azide solution in DMSO (10 μL, 80 mM) was added to the reaction vial via a glass syringe, and the reaction was left stirring for 24 h at room temperature under positive argon pressure. […] Reactions were quenched by adding 30 μL 3 M HCl under argon. To the vials were then added acetonitrile (430 uL) and internal standard (o-toluenesulfonamide 10 mM in 50% acetonitrile 50% water, 1 mM final concentration). This mixture was then transferred to a microcentrifuge tube, and centrifuged at 17,000×g for 10 minutes. A portion (20 μL) of the supernatant was then analyzed by HPLC. For LC-MS analysis, the quenched reaction mixture was extracted twice with ethyl acetate (2×350 μL), dried under a light argon stream and resuspended in 50% water-acetonitrile (100 μL). For chiral HPLC the reactions were extracted as above with ethyl acetate, dried and resuspended in DMSO (100 μL) and then C18 purified as described above. The C18 purified material was dried, and resuspended in acetonitrile, and then injected onto the chiral HPLC system for analysis. Sultam formation was quantified comparison of integrated peak areas of internal standard and sultam at 220 nm to a calibration curve made using synthetically produced sultam and internal standard.
Purified enzymes were screened for activity in small scale reactions (400 μL) under anaerobic conditions as described above. Reactions were carried out using 0.5% mol of enzyme (10 μM) with respect to the triethylsulfonyl azide substrate 1 (2 mM). Standard reaction conditions described above were employed. Diethyl benzosultam product 3 (FIG. 18) was analyzed and quantified by reversed-phase HPLC (see above).
Small-scale reactions (400 μL total volume) were set up and worked up. Control reactions were performed with both the holoenzyme (BM3 with covalently linked reductase domain) and the isolated heme domain. […] Reactions of the complete system with heme domain (CS heme) included 2 mM Na2S2O4 rather than NADPH unless otherwise indicated in the table. […]

A short description of assay [2]: N—H insertion, aniline with ethyl diazo acetate (EDA). The following applies: protein 10 uM, EDA 8.5 mM, aniline 20 mM, Na2S2O4 10 mM, 12 h; for % Yield: product 4.3. An excerpt:
We have found a variety of P450 variants to be general catalysts for carbenoid N—H insertion. We combined aniline with EDA in the presence of a reductant (Na2S2O4) under argon atmosphere and tested the mixture with seven P450BM3 variants previously identified as competent catalysts for cyclopropanation (Coelho, P. et al., Science. 2013, 339, 307-310). In choosing this set of P450s, we hypothesized that cyclopropanation activity could correlate with ability to generate the iron-carbenoid intermediate that is also necessary for N—H insertion. Whereas wild type BM3 (WT-BM3 (SEQ ID NO:1), Table 20, entry 1) provided only trace amounts of the desired product (4.3), a few variants gave 4.3 in good yields after 12 h at room temperature. In particular, variant H2-5-F10 which is derived from a thermostable P450BM3 lineage (Lewis, J. C. et al. ChemBioChem, 2010, 11, 2502-2505) and contains 15 mutation from WT-BM3 (SEQ ID NO:1), formed 4.3 in 47% yield and 473 turnovers (TTN) using 0.1% protein relative to EDA (entry 7). […] In contrast, when 1 mol % of the isolated hemin prosthetic group was used as catalyst, the single and double insertion products were produced in a 3.5 to 1 ratio (with a total product yield of 51%).
A representative procedure for P450-catalyzed N—H insertion is as follows. To an unsealed crimp vial, 60 μL of a P450 solution (67 or 133 μM) was added and the vial was sealed. A 12.5 mM solution of sodium dithionite in phosphate buffer (0.1 M, pH=8.0) was degassed by bubbling with argon in a 6 mL crimp-sealed vial. The headspace of the 2 mL vials containing P450 solution were flushed with argon (no bubbling). The buffer/dithionite solution (360 μL) was then added to each reaction vial via syringe, and the gas lines were disconnected from the vials. 10 μL of an 800 mM stock of aniline was added via a glass syringe, followed by 10 μL of a 340 mM stock of EDA (both stocks in MeOH). The reaction vials were then placed in a tray on a plate shaker and left to shake at 40 rpm. The final concentrations of the reagents were typically: 20 mM aniline, 8.5 mM EDA, 10 mM Na2S2O4, and 10 or 20 μM P450. After 12 h at 25° C., the vials were removed from the shaker and uncapped and 1 mL of cyclohexane was added, followed by 20 μL of a 20 mM solution of phenethyl alcohol (internal standard). The mixture was transferred to a 1.5 mL Eppendorf tube and vortexed and centrifuged (13,000×g, 1 min.). The organic layer was dried over sodium sulfate if necessary then analyzed by GC, with comparison to an authentically prepared sample that has been verified by proton NMR ([…], Varian, CDCl3).
Substitution is well-tolerated on the aniline partner on both the ortho and para positions. Reactions were analyzed by a Shimadzu GC with FID detector and J&W HP-5 column (30 m×0.32 mm, 0.25 μm film) and calibrated to an independently prepared sample of each product using phenethyl alcohol as internal standard. Reaction of aniline and EDA was also performed in milligram scale without any organic cosolvent to provide 4.3 in 65% isolated yield.
Calibration curves were plotted as follows. Yields of N—H insertion products were determined using calibration curves made with independently synthesized standards that have been verified by proton NMR, with comparison to known literature data (Baumann, L. K. et al. Organometallics. 2007, 26, 3995-4002; Anding, B. J. et al. Organometallics. 2013, 32, 2599-2607). Two stock solutions of product were made at 160 mM and 40 mM. To four or five samples containing 380 μL of buffer, product was added from either of the stock solutions such at a final concentration of 0.5-8.0 mM in 400 μL was obtained. 20 μL of internal standard was added to each eppendorf tube, then 1 mL of cyclohexane was added and the tubes were vortexed and centrifuged (13,000 ×g, 30 seconds). The organic layer was then analyzed by GC. The ratio of the areas under the internal standard and product peaks were plotted against the concentration for each solution. […]

Assay [3] is described as follows: P450BM3 compilation plate screen (GC, cyclopropane peaks). As to conditions: P450BM3 variants.

B1: BM3-CIS: 9-10A TS + F87V, T268A (protein, listed as Bacillus megaterium)
chain: TIKEMPQPKTFGELKNLPLLNTDKPVQALMKIADELGEIFKFEAPGRVTRYLSSQRLIKEACDESRFDKNLSQALKFARDFAGDGLVTSWTHEKNWKKAHNILLPSFSQQAMKGYHAMMVDIAVQLVQKWERLNADEHIEVSEDMTRLTLDTIGLCGFNYRFNSFYRDQPHPFIISMVRALDEVMNKLQRANPDDPAYDENKRQFQEDIKVMNDLVDKIIADRKARGEQSDDLLTQMLNGKDPETGEPLDDGNIRYQIITFLIAGHEATSGLLSFALYFLVKNPHVLQKVAEEAARVLVDPVPSYKQVKQLKYVGMVLNEALRLWPTAPAFSLYAKEDTVLGGEYPLEKGDEVMVLIPQLHRDKTVWGDDVEEFRPERFENPSAIPQHAFKPFGNGQRACIGQQFALHEATLVLGMMLKHFDFEDHTNYELDIKETLTLKPKGFVVKAKSKKIPLGGIPSPSTEQSAKKVRKKAENAHNTPLLVLYGSNMGTAEGTARDLADIAMSKGFAPQVATLDSHAGNLPREGAVLIVTASYNGHPPDNAKQFVDWLDQASADEVKGVRYSVFGCGDKNWATTYQKVPAFIDETLAAKGAENIADRGEADASDDFEGTYEEWREHMWSDVAAYFNLDIENSEDNKSTLSLQFVDSAADMPLAKMHGAFSTNVVASKELQQPGSARSTRHLEIELPKEASYQEGDHLGVIPRNYEGIVNRVTARFGLDASQQIRLEAEEEKLAHLPLAKTVSVEELLQYVELQDPVTRTQLRAMAAKTVCPPHKVELEALLEKQAYKEQVLAKRLTMLELLEKYPACEMKFSEFIALLPSIRPRYYSISSSPRVDEKQASITVSVVSGEAWSGYGEYKGIASNYLAELQEGDTITCFISTPQSEFTLPKDPETPLIMVGPGTGVAPFRGFVQARKQLKEQGQSLGEAHLYFGCRSPHEDYLYQEELENAQSEGIITLHTAFSRMPNQPKTYVQHVMEQDGKKLIELLDQGAHFYICGDGSQMAPAVEATLMKSYADVHQVSEADARLWLQQLEEKGRYAKDVWAG
modifications: cytochrome P450NADPH-P-450 reductase precursor, cytochrome P450 (BM3), CYP102A1
notes: 9-10A TS + F87V, T268A
On to B1, for which the “TTN (C—H amination product 3)” value in assay [1] was determined as 9. Besides, in assay [2], the TTn was found to be 363 and the “% Yield” value is given as 36%.

B2: H2-4-D4: 9-10A TS + F87V, L75A, M177A, L181A, T268A, L437A (protein, listed as Bacillus megaterium)
chain: TIKEMPQPKTFGELKNLPLLNTDKPVQALMKIADELGEIFKFEAPGRVTRYLSSQRLIKEACDESRFDKNLSQAAKFARDFAGDGLVTSWTHEKNWKKAHNILLPSFSQQAMKGYHAMMVDIAVQLVQKWERLNADEHIEVSEDMTRLTLDTIGLCGFNYRFNSFYRDQPHPFIISAVRAADEVMNKLQRANPDDPAYDENKRQFQEDIKVMNDLVDKIIADRKARGEQSDDLLTQMLNGKDPETGEPLDDGNIRYQIITFLIAGHEATSGLLSFALYFLVKNPHVLQKVAEEAARVLVDPVPSYKQVKQLKYVGMVLNEALRLWPTAPAFSLYAKEDTVLGGEYPLEKGDEVMVLIPQLHRDKTVWGDDVEEFRPERFENPSAIPQHAFKPFGNGQRACIGQQFALHEATLVLGMMLKHFDFEDHTNYELDIKETATLKPKGFVVKAKSKKIPLGGIPSPSTEQSAKKVRKKAENAHNTPLLVLYGSNMGTAEGTARDLADIAMSKGFAPQVATLDSHAGNLPREGAVLIVTASYNGHPPDNAKQFVDWLDQASADEVKGVRYSVFGCGDKNWATTYQKVPAFIDETLAAKGAENIADRGEADASDDFEGTYEEWREHMWSDVAAYFNLDIENSEDNKSTLSLQFVDSAADMPLAKMHGAFSTNVVASKELQQPGSARSTRHLEIELPKEASYQEGDHLGVIPRNYEGIVNRVTARFGLDASQQIRLEAEEEKLAHLPLAKTVSVEELLQYVELQDPVTRTQLRAMAAKTVCPPHKVELEALLEKQAYKEQVLAKRLTMLELLEKYPACEMKFSEFIALLPSIRPRYYSISSSPRVDEKQASITVSVVSGEAWSGYGEYKGIASNYLAELQEGDTITCFISTPQSEFTLPKDPETPLIMVGPGTGVAPFRGFVQARKQLKEQGQSLGEAHLYFGCRSPHEDYLYQEELENAQSEGIITLHTAFSRMPNQPKTYVQHVMEQDGKKLIELLDQGAHFYICGDGSQMAPAVEATLMKSYADVHQVSEADARLWLQQLEEKGRYAKDVWAG
modifications: cytochrome P450NADPH-P-450 reductase precursor, cytochrome P450 (BM3), CYP102A1
notes: 9-10A TS + F87V, L75A, M177A, L181A, T268A, L437A
Regarding B2, the “ee (cis)” value in assay [3] ((R,S)-(S,R), chiral β-CDX GC) is reported as −84. The de in assay [3] (diastereomeric excess = ([cis] − [trans])/([cis] + [trans])) was 57. The same molecule gave an Absolute activity in assay [3] (sum of the area of the cyclopropane peaks over the area of the internal standard) of 0.05244. For the same molecule, in assay [2], the TTn was 340 and the “% Yield” value was 34%.
